In patent US20260166128A1, “HUMAN AMYLIN ANALOG, AND DERIVATIVE THEREOF AND USE THEREOF” (priority 2022, published 2026):
Numbered stars: 1 amine (or outer) side, 2 acyl side, 3 side chain; on linkers, the order of the positions; unused ones are H or OH. Bridge positions count the residues as written; N and C are the ends. Square brackets hold non-standard residues; d marks the D form. Side chains are listed from the residue outwards. Peptide text beside a SMILES is read from it. * marks the point of attachment. C20 diacid = O=C(O)CCCCCCCCCCCCCCCCCCC(=O)*; C18 diacid = O=C(O)CCCCCCCCCCCCCCCCC(=O)*; C16 diacid = O=C(O)CCCCCCCCCCCCCCC(=O)*; γGlu = O=C(O)[C@H](CCC(=O)[*:2])N[*:1]; C14 diacid = O=C(O)CCCCCCCCCCCCC(=O)*; cisHyp = O=C(O)[C@@H]1C[C@H](O)CN1; Hyp = O=C(O)[C@@H]1C[C@@H](O)CN1

Key:
[1] = molecular target: T1, human amylin receptor (Homo sapiens, UniProt O60896+P30988); assay: Luciferase assay of amylin derivatives in amylin receptor/CRE-luc CHO cell line; assay type: cell-based; conditions: CHO-K1/Ga15/AMY3 CRE-luc cells, 24 hours incubation, F12 medium containing 10% FBS; read-out: EC50
T1 construct: host or cells: CHO-K1/Ga15/AMY3 cells, further stably transfected with a CRE-luciferase plasmid
T1 sequence (P30988 25-474): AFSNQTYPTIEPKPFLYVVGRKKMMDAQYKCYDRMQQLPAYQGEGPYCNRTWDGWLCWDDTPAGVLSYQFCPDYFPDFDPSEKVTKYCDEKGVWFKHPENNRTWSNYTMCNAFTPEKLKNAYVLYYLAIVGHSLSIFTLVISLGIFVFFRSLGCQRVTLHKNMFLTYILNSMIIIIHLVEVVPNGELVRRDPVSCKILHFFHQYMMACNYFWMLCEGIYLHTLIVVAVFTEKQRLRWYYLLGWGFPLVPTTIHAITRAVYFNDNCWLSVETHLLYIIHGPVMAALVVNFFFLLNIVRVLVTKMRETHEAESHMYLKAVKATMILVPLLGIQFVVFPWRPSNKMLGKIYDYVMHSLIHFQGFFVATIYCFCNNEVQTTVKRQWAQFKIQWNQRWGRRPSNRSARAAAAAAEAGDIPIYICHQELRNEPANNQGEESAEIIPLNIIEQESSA
T1 sequence (O60896 24-148 partner): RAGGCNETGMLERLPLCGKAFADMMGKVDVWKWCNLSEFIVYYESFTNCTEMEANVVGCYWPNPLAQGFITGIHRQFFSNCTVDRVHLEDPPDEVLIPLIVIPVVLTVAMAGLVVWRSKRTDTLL
Protocol: The experiment was intended to detect the activity or efficacy of the amylin derivatives on a human amylin receptor in vitro by luciferase assay.
50 μL of growth medium (F12 medium containing 10% FBS) was added into each well of a white 96-well plate, and the stably transfected amylin/CRE-lue CHO cells were inoculated into the white 96-well plate at a density of about 20,000 cells/well for activity determination.

[2] = Freeze-thaw stability of derivatives (freeze-thaw yield by liquid chromatography); assay type: physicochemical; conditions: for Dissolution property: appearance after dissolution at 0.2 mg/ml in 20 mM phosphate buffer solution (PB) (pH 7.0); for Freeze storage property: appearance after overnight storage at −20° C. and thawing to room temperature, 0.2 mg/ml in 20 mM PB (pH 7.0); for Freeze storage yield: concentration of polypeptide after freezing and thawing / concentration before, by liquid chromatography, −20° C. overnight
Protocol: The freeze-dried powder of the polypeptide analog derivative prepared in Example 1 was mixed with a buffer solution according to a mass-volume ratio of 0.2 mg/ml, the polypeptide was dissolved with 20 mM phosphate buffer solution (PB) (pH 7.0), the sample was stored at −20° C. for overnight storage, and then the sample was taken out to be restored to room temperature for thawing. During the experiment, property changes of the polypeptide after dissolution and freezing and thawing were observed and recorded respectively, and concentrations of the polypeptide before and after the freezing and thawing were detected by the following liquid chromatography method: Materials and equipment: high-performance liquid chromatographic instrument (Agilent 1200), ultrapure water (18.2 MΩ self-manufactured ultrapure water), acetonitrile (HPLC grade), and trifluoroacetic acid (HPLC grade); and reversed-phase chromatographic column: […] A sample to be tested was centrifuged at 10,000 rpm and 4° C. for 3 minutes, and a supernatant was taken and added into a liquid-phase sample injection bottle. […] A freeze-thaw yield was calculated by the following formula: freeze-thaw yield=concentration of polypeptide after the freezing and thawing/concentration of polypeptide before the freezing and thawing.

EC50 [1]	Compound	Dissolution property [2]	Freeze storage property [2]	Freeze storage yield [2]
0.259 nM	CC[C@H](C)[C@H](NC(=O)[C@@H]1CCCN1C(=O)[C@H](CCCCNC(=O)CC[C@H](NC(=O)CCCCCCCCCCCCCCCCCCC(=O)O)C(=O)O)NC(=O)[C@H](CC(C)C)NC(=O)[C@H](CC(N)=O)NC(=O)[C@H](CC(N)=O)NC(=O)[C@H](CO)NC(=O)[C@H](CO)NC(=O)[C@H](Cc1c[nH]cn1)NC(=O)[C@H](CCCNC(=N)N)NC(=O)[C@H](CC(C)C)NC(=O)[C@H](Cc1ccccc1)NC(=O)[C@H](CCC(=O)O)NC(=O)[C@H](C)NC(=O)[C@H](CC(C)C)NC(=O)[C@H](CCCNC(=N)N)NC(=O)[C@H](CCC(N)=O)NC(=O)[C@@H](NC(=O)[C@H](C)NC(=O)[C@@H]1CSSC[C@H](NC(=O)[C@@H](N)CCCNC(=N)N)C(=O)N[C@@H](CC(N)=O)C(=O)N[C@@H]([C@@H](C)O)C(=O)N[C@@H](C)C(=O)N[C@@H]([C@@H](C)O)C(=O)N1)[C@@H](C)O)C(=O)N[C@@H](CC(C)C)C(=O)N1CCC[C@H]1C(=O)N1CCC[C@H]1C(=O)N[C@H](C(=O)N[C@@H](CC(N)=O)C(=O)N[C@H](C(=O)NCC(=O)N[C@@H](CO)C(=O)NCC(=O)N[C@H](C(=O)N1C[C@H](O)C[C@H]1C(N)=O)[C@@H](C)O)C(C)C)[C@@H](C)O [PD041] (H-RCNTATCATQRLAEFLRHSSNNLK([γGlu-C20 diacid])PILPPTNVGSGT[Hyp]-NH2; disulfide 2-7)			
0.075 nM	CC[C@H](C)[C@H](NC(=O)[C@@H]1CCCN1C(=O)[C@H](CCCCNC(=O)CC[C@H](NC(=O)CCCCCCCCCCCCCCCCCCC(=O)O)C(=O)O)NC(=O)[C@H](CC(C)C)NC(=O)[C@H](CC(N)=O)NC(=O)[C@H](CC(N)=O)NC(=O)[C@H](CO)NC(=O)[C@H](CO)NC(=O)[C@H](Cc1c[nH]cn1)NC(=O)[C@H](CCCNC(=N)N)NC(=O)[C@H](CC(C)C)NC(=O)[C@H](Cc1ccccc1)NC(=O)[C@H](CCC(=O)O)NC(=O)[C@H](C)NC(=O)[C@H](CC(C)C)NC(=O)[C@H](CCCNC(=N)N)NC(=O)[C@H](CCC(N)=O)NC(=O)[C@@H](NC(=O)[C@H](C)NC(=O)[C@@H]1CSSC[C@H](N)C(=O)N[C@@H](CC(N)=O)C(=O)N[C@@H]([C@@H](C)O)C(=O)N[C@@H](C)C(=O)N[C@@H]([C@@H](C)O)C(=O)N1)[C@@H](C)O)C(=O)N[C@@H](CC(C)C)C(=O)N1CCC[C@H]1C(=O)N1CCC[C@H]1C(=O)N[C@H](C(=O)N[C@@H](CC(N)=O)C(=O)N[C@H](C(=O)NCC(=O)N[C@@H](CO)C(=O)N[C@@H](CC(N)=O)C(=O)N[C@H](C(=O)N1C[C@H](O)C[C@H]1C(N)=O)[C@@H](C)O)C(C)C)[C@@H](C)O [PD053] (H-CNTATCATQRLAEFLRHSSNNLK([γGlu-C20 diacid])PILPPTNVGSNT[Hyp]-NH2; disulfide 1-6)			
0.049 nM	CC[C@H](C)[C@H](NC(=O)[C@@H]1CCCN1C(=O)[C@H](CCCCNC(=O)CC[C@H](NC(=O)CCCCCCCCCCCCCCCCCCC(=O)O)C(=O)O)NC(=O)[C@H](CC(C)C)NC(=O)[C@H](CC(N)=O)NC(=O)[C@H](CC(N)=O)NC(=O)[C@H](CO)NC(=O)[C@H](CO)NC(=O)[C@H](Cc1c[nH]cn1)NC(=O)[C@H](CCCNC(=N)N)NC(=O)[C@H](CC(C)C)NC(=O)[C@H](Cc1ccccc1)NC(=O)[C@H](CC(=O)O)NC(=O)[C@H](C)NC(=O)[C@H](CC(C)C)NC(=O)[C@H](CCCNC(=N)N)NC(=O)[C@H](CCC(N)=O)NC(=O)[C@@H](NC(=O)[C@H](C)NC(=O)[C@@H]1CSSC[C@H](N)C(=O)N[C@@H](CC(N)=O)C(=O)N[C@@H]([C@@H](C)O)C(=O)N[C@@H](C)C(=O)N[C@@H]([C@@H](C)O)C(=O)N1)[C@@H](C)O)C(=O)N[C@@H](CC(C)C)C(=O)N1CCC[C@H]1C(=O)N1CCC[C@H]1C(=O)N[C@H](C(=O)N[C@@H](CC(N)=O)C(=O)N[C@H](C(=O)NCC(=O)N[C@@H](CO)C(=O)N[C@@H](CC(N)=O)C(=O)N[C@H](C(=O)N1C[C@H](O)C[C@H]1C(N)=O)[C@@H](C)O)C(C)C)[C@@H](C)O [PD054] (H-CNTATCATQRLADFLRHSSNNLK([γGlu-C20 diacid])PILPPTNVGSNT[Hyp]-NH2; disulfide 1-6)			
0.909 nM	CC[C@H](C)[C@H](NC(=O)[C@@H]1CCCN1C(=O)[C@H](CCCCNC(=O)CC[C@H](NC(=O)CCCCCCCCCCCCCCCCCCC(=O)O)C(=O)O)NC(=O)[C@H](CC(C)C)NC(=O)[C@H](CC(N)=O)NC(=O)[C@H](CC(N)=O)NC(=O)[C@H](CO)NC(=O)[C@H](CO)NC(=O)[C@H](Cc1c[nH]cn1)NC(=O)[C@H](CCCNC(=N)N)NC(=O)[C@H](CC(C)C)NC(=O)[C@H](Cc1ccccc1)NC(=O)[C@H](CCC(=O)O)NC(=O)[C@H](C)NC(=O)[C@H](CC(C)C)NC(=O)[C@H](CCCNC(=N)N)NC(=O)[C@H](CCC(N)=O)NC(=O)[C@@H](NC(=O)[C@H](C)NC(=O)[C@@H]1CSSC[C@H](NC(=O)[C@@H](N)CCCNC(=N)N)C(=O)N[C@@H](CC(N)=O)C(=O)N[C@@H]([C@@H](C)O)C(=O)N[C@@H](C)C(=O)N[C@@H]([C@@H](C)O)C(=O)N1)[C@@H](C)O)C(=O)N[C@@H](CC(C)C)C(=O)N1CCC[C@H]1C(=O)N1CCC[C@H]1C(=O)N[C@H](C(=O)N[C@@H](CC(N)=O)C(=O)N[C@H](C(=O)NCC(=O)N[C@@H](CO)C(=O)N[C@@H](CC(N)=O)C(=O)N[C@H](C(=O)N1C[C@@H](O)C[C@H]1C(N)=O)[C@@H](C)O)C(C)C)[C@@H](C)O [PD055] (H-RCNTATCATQRLAEFLRHSSNNLK([γGlu-C20 diacid])PILPPTNVGSNT[cisHyp]-NH2; disulfide 2-7)			
0.586 nM	CC[C@H](C)[C@H](NC(=O)[C@@H]1CCCN1C(=O)[C@H](CCCCNC(=O)CC[C@H](NC(=O)CCCCCCCCCCCCCCCCCCC(=O)O)C(=O)O)NC(=O)[C@H](CC(C)C)NC(=O)[C@H](CC(N)=O)NC(=O)[C@H](CC(N)=O)NC(=O)[C@H](CO)NC(=O)[C@H](CO)NC(=O)[C@H](Cc1c[nH]cn1)NC(=O)[C@H](CCCNC(=N)N)NC(=O)[C@H](CC(C)C)NC(=O)[C@H](Cc1ccccc1)NC(=O)[C@H](CC(=O)O)NC(=O)[C@H](C)NC(=O)[C@H](CC(C)C)NC(=O)[C@H](CCCNC(=N)N)NC(=O)[C@H](CCC(N)=O)NC(=O)[C@@H](NC(=O)[C@H](C)NC(=O)[C@@H]1CSSC[C@H](NC(=O)[C@@H](N)CCCNC(=N)N)C(=O)N[C@@H](CC(N)=O)C(=O)N[C@@H]([C@@H](C)O)C(=O)N[C@@H](C)C(=O)N[C@@H]([C@@H](C)O)C(=O)N1)[C@@H](C)O)C(=O)N[C@@H](CC(C)C)C(=O)N1CCC[C@H]1C(=O)N1CCC[C@H]1C(=O)N[C@H](C(=O)N[C@@H](CC(N)=O)C(=O)N[C@H](C(=O)NCC(=O)N[C@@H](CO)C(=O)N[C@@H](CC(N)=O)C(=O)N[C@H](C(=O)N1C[C@@H](O)C[C@H]1C(N)=O)[C@@H](C)O)C(C)C)[C@@H](C)O [PD056] (H-RCNTATCATQRLADFLRHSSNNLK([γGlu-C20 diacid])PILPPTNVGSNT[cisHyp]-NH2; disulfide 2-7)			

Further lines, the compound ahead of its results:

Compound	EC50 [1]	Dissolution property [2]	Freeze storage property [2]	Freeze storage yield [2]
PD150: KCNTATCATQRLADFLRHSSNNLKPILPPTNVGSNT-trans-Hyp-NH2; N-terminal, 1K-ϵ; γGlu + C14 diacid ({C14 diacid-γGlu}-K([γGlu-C14 diacid])CNTATCATQRLADFLRHSSNNLKPILPPTNVGSNT-{trans‑Hyp-NH2}; disulfide 2-7 (inferred))		Clear	Clear	103.74%
PD151: KCNTATCATQRLADFLRHSSNNLKPILPPTNVGSNT-trans-Hyp-NH2; N-terminal, 1K-ϵ; γGlu + C16 diacid ({C16 diacid-γGlu}-K([γGlu-C16 diacid])CNTATCATQRLADFLRHSSNNLKPILPPTNVGSNT-{trans‑Hyp-NH2}; disulfide 2-7 (inferred))		Clear	Clear	101.88%
PD152: KCNTATCATQRLADFLRHSSNNLKPILPPTNVGSNT-trans-Hyp-NH2; N-terminal, 1K-ϵ; γGlu + C18 diacid ({C18 diacid-γGlu}-K([γGlu-C18 diacid])CNTATCATQRLADFLRHSSNNLKPILPPTNVGSNT-{trans‑Hyp-NH2}; disulfide 2-7 (inferred))		Clear	Clear	97.96%
